Patent US20240026407A1, “MODIFICATION OF SAPONINS” (GLAXOSMITHKLINE BIOLOGICALS SA, priority 2020, published 2024)

B1: 1012 (protein)
chain: MKSRLKQQIFAISLLACTAISPANALQTHLLREQFQNPSDEAKPWTFWYWMFGAVSKEGITADLEAMKRAGLGGTYLMPIKGIKEGPQYNGKAQQLTPEWWEMVRFSMEEADRLGLKLGMHICDGFALAGGPWMTPKESMQKIVWSDTIVDGGKIKGLHLPQPEAYEGFYEDISLFALPVKEEAADVMPAQITCANIATGNHIDIKKTVNMDDAGVIRSSYPCYIQYEYEQPFTCRNIEIILSGNNYQAHRLKVMASDDGVNYRLVKQLVPARQGWQNTDENSTHAIPATTARYFRFYWTPEGSEPGSEDMDAAKWKPNLKIKELRLHREARLDQWEGKAGLVWRVASSTKKEEIGEQDCYALSQIINLTDPFKNSPSDNFKERTLTATLPKGKWKLLRMGHTATGHTNATAGGGKGLECDKFNPKAVRKQFDNWFAQAFVKTNPDVARRVLKYMHVDSWECGSQNWSDTFAAEFRKRRGYDLMPYLPLLAGIPMESAERSEKILRDVRTTIGELVVDVFYQVLADCAKEYDCQFSAECVAPTMVSDGLLHYQKVDLPMGEFWLNSPTHDKPNDMLDAISGAHIYGKNIIQAEGFTEVRGTWNEHPGILKALLDRNYALGINRLFFHVYVHNPWLDRKPGMTLDGIGLFFQRDQTWWNKGAKAFCEYITRCQSLLQYGHPVADIAVFTGEEMPRRSILPERLVPSLPGIFGAERVESERIRLANEGQPLRVRPVGVTHSANMSDPEKWVNPLRGYAYDSFNKDALLRLAKAENGRMTLPGGASYKVLVLPLPRPMNPDPAALSPEVKQKINELKEAGILIPSLPYKEDDFSSYGLERDLIVPENIAWTHRQGEQGDIYFIANQLEETRTFTASMRIDGRKPECWNPVTGEINADIPYEQKSHRTEITLTLAPNESVFIVYPAEEDDKETSEKERKEKKDSVKEASETGLEATEYTVTFTANGKTIQRQELFDWSKEEDEQIRYYSGTAVYKTTFRWKSKVKEDQQVYLNLGKVCDLATVRVNGIDCGTIWTAPYRADITAALKKGVNELEIEVTNTWANALKGADEGKAPFDGIWTNAKYRRAENTLLPAGLLGPLNFDVANKNK
modifications: Bacteroides thetaiotaomicron
B2: 1028 (protein, listed as Formosa agariphila)
chain: MKYNKLLFSLLLLAVFCFSCKEEQKLQTSLDFDKVLLNAKSNPIAIESESPLFSWIIKAEGFGKSQSAYHILVASSLDKLDETHADVWNSNKVESSKSTFVKYEGKELKAATRYYWKVKVWDKSNQESNWSEPQYFQMGLLDESNWGEAKWITLTNDTRTSEYRFREYKTGRMEQPIQVDGFAASYFRNKINLNKEVDNAQVYICGLGYYEFFLNGEKVGDHVLDPAPSNYDKQAYYVNYDITEQLNSGENALGIILGNGFYGQNISWKNDPESDRDLAYGPPTVRVLLKLKYKDGTESEFFSDETWKESTGPIVFNNIYGGDTYDARFELGDWTSTNYDDSSWGFAKETAPEIKNISAQQIPAIKKLQDYEPQNVFKGSDGEWIVDFGQNIAGWVKLNVSEKEGQLIEVITTEALLTNGRDIFPGSTGGGANGMAQIYQYICKGDGQESWEPKFSYHGFRYAKIKGVSTKPDADMIKAVLVATDIQETGSFECSDDLFNKMHNISKWTIVDNVHGIPEDCPHREKCGWLGDAHAFCEYALYNYDMYDFYKKYMEDIRTQMLPTKGHNNPELKFQVPTMIAPGKRTSSYAKIDWGVATMYLPWYNYLYYGDDAIVNEYYPEMKDLTNFYLNFKGENGIMQDGMGDWCPPRWDRRTNPEAMECDPIISANAYFYDVLGIMETFAKMNNDGAFQSEMKAEKEALKDAFNKAFLVEIPNTDFKWYQSQTATVQALQFGMVPEEEIENVVNGLEYDIVEVKGGHHSTGIHGNRYIYTVLSKYGKADLAYRILTTPDFPSQTYIMNSGFTTWPERQFEWETMEGPTNSLNHPMHSGFSAYFFESLGGIKSSTKEAGYKQFIVNPEFPSQITQTKVSVPTPYGDIKNDWSFEEGKLSMTLEIPFNTEANLVLNQAELESLIINGKTFQNLQKNTKSVTLQGSNVILGSGKYKILYNKR
B3: 991 (protein)
chain: MKFARLNTLTVWLITSFITVSFTISEAISADLTPVNLRTEYKRNPVVDVDKPRLSWELTATGRGQIQTAYQILVASSAALLNAEKADLWQSAKVAGNATNQIEYSGKTLLSRTVCYWKVRSWDKNGQPGPWSAVATWEMGLLTKADWKADWIGNDLTALGKGKTYHLPPSPFFRKEIQLTAPVKKARLYVTSLGLYEYQINGKRIGNDYFTPGWTDYNKRVYYQTYDVTADVKPGKNALGAILADGWYAGYLGYALLVGNPVVKNFYGNVPLLKAQLEIEYTNGKTETIATDQSWKTSHGPILEADILNGETYNANLAFDNWSKTGFNDAGWKNSTIFPDKPDRQLEAYPGNPVRVFQELKAKTVTPKAGGHYLFDLGQNFAGMVRLRVKGNKGDTIRLRFGEVLFPNGDIMTENLRKARATDTYILKGDPQGETWTPKFTYHGFQYVDVAGFKSAPGLDAITGIVLTSATPETGSFETDNKLINKLYQNIVWTQRSNYVEVPTDCPQRDERLGWTGDAQAYVQSATFNNDISAFFTKWLVDLNDAQRPDNAYPIYAPAPNVRKTDTYSPGWSEAGIICPYTIYKTYGDTRVIQKFWPNMVAYLKFMEAKSQGTYVYKEGSFAEVSPKGGFGDWLSVGKKTPPDMLATLYFGYAASMMADMAKAIGKPDEATYYTTMFTKIKQAFRAHYTDETGRFKTNSAAYGNGEGYVDGEMGFEGHTQTAYANAIYMNMIAPDLTPKAGNWLVDLIKANDNKLSTGFLGVKPLLPSLSMTGHSNEAYKLLLSTEYPSWGFEVVNGANTIWERWNSYIKGKGFENNAGMNSFNHYAFGSVNEWLFGNAAGIKAAEAGYRTFIIRPELAPQGINFVNASYRSINGTIVSSWKKEGNRVRMKVVVPANTTATVFIPITKPDSVLESNKALTASQDIRVIGARDGYLQVTVGSGTYQFSAVN
modifications: Spirosoma linguale
B4: 1004 (protein)
chain: METQVIKPIAVGDLQITRFTIEHFPGDALGIPTATPRMNWTYSRAVPDGSQILLKISRRVPGSPAKEECTYLPPEDNVLVPWQFTPLASREEVFATVQLVSAAHKPLSDPSATLHFEAGLMQEYEHVADFVGPSWAEPETDHRHLPLIRTEIAIKAKPKRARLYLSALGLVEAEINGVKIGNDALIPGWTNYEQRVQCWTYDVTGELNEGANAMGFWLGDGWYRGRLGFDGGYVNYYGDRLGVFAQLEVEYEDGGIEHVYSNAWDRQWKASLGPIVCSDLCEGERYDARLEQPGWSEPGFDDSSWKPVAEIFYDPAKIENPDTSPVRAQEINEPVSITRTGDTPDGRGIWLVDFGQNCTQRIHLHVKGLEAGQSVELHHVEVLEPNGEIATRTLRRGQQHDIYTSNGTDAWWEPRFAMHGFRYAQIEGVAGELTAADIECHVYHSVMDRAGELETSNPLLNRLHANALWSMRSNFVSVPQDCPQRDERMGWTGDICLFAPTAAYLYDVYGFLKSWLKDVRADQVKWGTVPFYVPFIPLGGWAHPQAISTWGDSAVEVPWVLYMESGDPQILADSYDLSRDWIDEVAGYLSPDGVWDRRPDYVLGQLGDWLDPTAPPDDPTQAMTEKELVATAFFARSCAQAEQIARILGNNEDAVRFGDLRRHVTSGFLARFTNLDGTMTSDTQCAYALAIAFGLLDGEPVRRVKAGNRLAKLVRESGGKVSTGFAGTPFVLPALTMTGHNEEAYGLLLSEECPSWLYQVKMGATTTWERWDSMRPDGSLNPGGMTSFNHYALGSVAEWMHAHIGGLEAIEAGWKRFRVAPVIGGGLDHASTSHVTPYGKASVAWKTSAEGVELDVTVPIGATAVVELPDHEPTELAGGTHHLVVAL
modifications: Bifidobacterium moukalabense

Assay: Experiment 6-1: specificity of rhamnosidases towards other rhamnose residues (C3 saccharide rhamnose, C28 saccharide rhamnose)
Assay type: biochemical, Quillaja saponaria
Conditions: TBE 2%, pH 7.5, 30 degC, 18 h; LCMS/MS; negative controls 0.18, 0.17

First: B1
Second: B2
The “ratio PP/QS-21” value of the first is higher: 0.16 for the first, 0.15 for the second.

Going from B3 to B4, the “ratio PP/QS-21” value falls from 0.17 to 0.16.

Assay: Experiment 6-1: screening of rhamnosidases for derhamnosylation of saponins in treated bark extract (2%), QS-17 2310 to QS-18 2164 (PAR %)
Assay type: biochemical, Quillaja saponaria
Conditions: TBE 2%, pH 7.5, 30 degC, 18 h; TIC peak area ratio percent, LCMS/MS; negative controls 3.061, 2.429

Compared with B1, B2 is lower in “Peak57 (PAR %)” value: 3.249% for the first, 1.993% for the second.

First: B3
Second: B4
The “Peak57 (PAR %)” value of the first is higher: 3.443% for the first, 2.942% for the second.

Assay: Experiment 6-1: screening of rhamnosidases for derhamnosylation of saponins in treated bark extract (2%), desglucosyl-QS-17 2134 to QS-21 1988 (PAR %)
Assay type: biochemical, Quillaja saponaria
Conditions: TBE 2%, pH 7.5, 30 degC, 18 h; TIC peak area ratio percent, LCMS/MS; negative controls 2.719, 2.158

Going from B1 to B2, the “Peak75 (PAR %)” value rises from 2.610% to 2.885%.

First: B3
Second: B4
The “Peak75 (PAR %)” value of the first is lower: 2.453% for the first, 2.553% for the second.

Assay: Experiment 6-1: screening of rhamnosidases for derhamnosylation of saponins in treated bark extract (2%), QS-17 2296 to QS-18 2150 (PAR %)
Assay type: biochemical, Quillaja saponaria
Conditions: TBE 2%, pH 7.5, 30 degC, 18 h; TIC peak area ratio percent of rhamnosylated starting saponin to derhamnosylated product, LCMS/MS; negative controls 4.876, 5.225

First: B1
Second: B2
The “QS-17 (PAR %)” value of the first is lower: 5.068% for the first, 5.081% for the second.

Going from B3 to B4, the “QS-17 (PAR %)” value falls from 5.084% to 5.076%.
